In the RNAGym collection of RNA variant scans (doi:10.7554/elife.80360):

B1: HDV Ribozyme (parent)
chain: GGCCGGCAUGGUCCCAGCCUCCUCGCUGGCGCCGGCUGGGCAACAUUCCGAGGGGACCGUCCCCUCGGUAAUGGCGAAUGGGACCCA

Variants of: B1
Test: self-cleavage, relative activity (ratio to wild type); higher = more cleavage; co-transcriptional

Variant	self-cleavage
GGCCGGCAUGGCCCCAGCCUCCUCGCUGGCGCCGGCUGGGCAACAUUCCGAGGGGACCGUCCCCUCGGUGAUGGCGAAUGGGACCCA	0.692
GGCCGGCAUGGACCCAGCCUCCUCGCUGGCGCCGGCGGGGCAACAUUCCGAGGGGACCGUCCCCUCGGUAAUGGCGAAUGGGACCCA	0.0536
GGCCGGCAUGGACCCAGCCUCCUAGCUGGCGCCGGCUGGGCAACAUUCCGAGGGGACCGUCCCCUCGGUAAUGGCGAAUGGGACCCA	0.104
GGCCGGCAUGGACCCAGCCUCCUCGCUGGCGCCGGCUGGGCAUCAUUCCGAGGGGACCGUCCCCUCGGUAAUGGCGAAUGGGACCCA	0.147
GGCCGGCAUGGACCCAGCCUCCUCGCUGGCGCCGGCUGGGCAACAUUCCGAGGGGACCGUCCCCUGGGUAAUGGCGAAUGGGACCCA	0.375
GGCCGGCAUGGCCCCAGCCUCCUCGCUGGCGCCGGCUGGGCAACAUUCCGAGGGGACCGUCCCCUCGGUACUGGCGAAUGGGACCCA	0.0831
GGCCGGCAUGGCCCCAGCCUCCUCGCUGGCGCCGGCUGGGCAACAUUCCGAGGGGACCGUCCCCUCGGUAGUGGCGAAUGGGACCCA	0.287
GGCCGGCAUGGACCCAGCCUCCUCGCUGGCGCCGGCUGGGCAACAUUCCGAGGGGACCGUCCCCUCGGUAACGGCGAAUGGGACCCA	0.277
GGCCGGCAUGGACCCAGCCUCCUCGCUGGCGCCGGCUGGGCAACAUUCCGAGUGGACCGUCCCCUCGGUAAUGGCGAAUGGGACCCA	0.318
GGCCGGCAUGGACCCAGCCUCCUCGCUGGCGCCGGCUGGGCAACAUUCCGAGGUGACCGUCCCCUCGGUAAUGGCGAAUGGGACCCA	0.415
GGCCGGCAUGGACCCAGCUUCCUCGCUGGCGCCGGCUGGGCAACAUUCCGAGGGGACCGUCCCCUCGGUAAUGGCGAAUGGGACCCA	0.0831
GGCCGGCAUGGACCCAGCCUCCUCGCUGGCGCCGGUUGGGCAACAUUCCGAGGGGACCGUCCCCUCGGUAAUGGCGAAUGGGACCCA	0.0678
GGCCGGCAUGGACCCAGCCUCCUCGCUGGCGCCGGCUGGGCAACAUUCCGAGGGGACCGUCCCAUCGGUAAUGGCGAAUGGGACCCA	0.26
GGCCGGCAUGGACCCAGCCUCCUCGCUGGCGCCGGCUGGGCAACAUUCCGAGGGGACCGUCCCUUCGGUAAUGGCGAAUGGGACCCA	0.178
GGCCGGCAUGGACCCAGGCUCCUCGCUGGCGCCGGCUGGGCAACAUUCCGAGGGGACCGUCCCCUCGGUAAUGGCGAAUGGGACCCA	0.0405
GGCCGGCAUGGACCCAGCCUACUCGCUGGCGCCGGCUGGGCAACAUUCCGAGGGGACCGUCCCCUCGGUAAUGGCGAAUGGGACCCA	0.0678
GGCCGGCAUGGACCCAGCCUCCUCGCUGGCGCCGGCUGGGCGACAUUCCGAGGGGACCGUCCCCUCGGUAAUGGCGAAUGGGACCCA	0.256
GGCCGGCAUGGACCCAGCCUCCUCGCUGGCGCCGGCUGGGCCACAUUCCGAGGGGACCGUCCCCUCGGUAAUGGCGAAUGGGACCCA	0.147
GGCCGGCAUGGACCCAGCCUCCUCGCUGGCGCCGGCUGGGCUACAUUCCGAGGGGACCGUCCCCUCGGUAAUGGCGAAUGGGACCCA	0.119
GGCCGGCAUGGACCCAGCCUCCUCGCUGGCGCCGGCUGGGCAACAUUCCGAGGGGACCGUCCCCUCGUUAAUGGCGAAUGGGACCCA	0.312
GGCCGGCAUGGACCCAGCCUCCUCGCUGGCGCCGGCUGGGCAACAUUCCGAGGGGACCGUCCCCUCGAUAAUGGCGAAUGGGACCCA	0.155
GGCCGGCAUGGACCCAGCCUCCUCGCUGGCGCCGGCUGGGCAACAUUCCGAGGGGACCGUCCCCUCGGUAAUGGCGAAUUGGACCCA	0.0968

Variant	self-cleavage
GGCCGGCAUGGACCCAGCCUCCUCGCUGGCGCCGGCUGGGCAACAUUCCGAGGGGACCGUCCCCUCGGUAAUGGCGAAUGGAACCCA	0.0489
GGCCGGCAUGGACCCAGCCUCCACGCUGGCGCCGGCUGGGCAACAUUCCGAGGGGACCGUCCCCUCGGUAAUGGCGAAUGGGACCCA	0.192
GGCCGGCAUGGCCCCAGCCUCCUCGCUGGCGCCGGCUGGGCAACAUUCCGAGGGGACCGUCCCCUCGGUAAUGGCGAAUGGGACCCA	0.399
GGCCGGCAUGGACCCAGCCUCCUCGCUGCCGCCGGCUGGGCAACAUUCCGAGGGGACCGUCCCCUCGGUAAUGGCGAAUGGGACCCA	0.0386
GGCCGGCAUGGCCCCCGCCUCCUCGCUGGCGCCGGCUGGGCAACAUUCCGAGGGGACCGUCCCCUCGGUAAUGGCGAAUGGGACCCA	0.302
GGCCGGCAUGGCCCCUGCCUCCUCGCUGGCGCCGGCUGGGCAACAUUCCGAGGGGACCGUCCCCUCGGUAAUGGCGAAUGGGACCCA	1.05
GGCCGGCAUGGACCCAGCCUCCUCGCUGGCGCCGGCUAGGCAACAUUCCGAGGGGACCGUCCCCUCGGUAAUGGCGAAUGGGACCCA	0
GGCCGGCAUGGACCCAGCCUCCUCGCUGGCGCCGGCUCGGCAACAUUCCGAGGGGACCGUCCCCUCGGUAAUGGCGAAUGGGACCCA	0.0489
GGCCGGCAUGGACCCAGCCUCCUCGCUGGCGCCGGCUGGGCAACAUUCCGAGGGGACAGUCCCCUCGGUAAUGGCGAAUGGGACCCA	0.312
GGCCGGCAUGGACCCAGCCUCCUCGCUGGCGCCGGCUGGGCAACAUUCCGAGGGGACGGUCCCCUCGGUAAUGGCGAAUGGGACCCA	0.383
GGCCGGCAUGGACCCAGCCUCCUCGCUGGCGCCGGCUGAGCAACAUUCCGAGGGGACCGUCCCCUCGGUAAUGGCGAAUGGGACCCA	0.225
GGCCGGCAUGGACCCAGCCUCCUCGCUGGCGCCGGCUGGGCAACAUUCCGAGGGGACCGUCCCCUCGGUAAUGUCGAAUGGGACCCA	0.101
GGCCGGCAUGGACCCAGCCUCCUCGCUGGCGCCGGCUGGGCAACAUUCCGAAGGGACCGUCCCCUCGGUAAUGGCGAAUGGGACCCA	0.364
GGCCGGCAUGGACCCAGCCUCCUCGCUGGCGGCGGCUGGGCAACAUUCCGAGGGGACCGUCCCCUCGGUAAUGGCGAAUGGGACCCA	0.225
GGCCGGCAUGGACCCAGCCUCCUCGCUGGCGACGGCUGGGCAACAUUCCGAGGGGACCGUCCCCUCGGUAAUGGCGAAUGGGACCCA	0.131
GGCCGGCAUGGACCCAGCCUCCUCGCUGGCGCCGGCUGGGUAACAUUCCGAGGGGACCGUCCCCUCGGUAAUGGCGAAUGGGACCCA	0.147
GGCCGGCAUGGACCCAACCUCCUCGCUGGCGCCGGCUGGGCAACAUUCCGAGGGGACCGUCCCCUCGGUAAUGGCGAAUGGGACCCA	0.19
GGCCGGCAUGGACCCAGCCUCCUCGCUGGCGCCGGCUGGGCAACAUUCCGAGGGGACCGUCCCCUCGGGAAUGGCGAAUGGGACCCA	0.795
GGCCGGCAUGGACCCAGCCUCCUCGCUGGCGCCGGCUGGGCAACAUUCCGAGGGGACCGUCCCCUCGGCAAUGGCGAAUGGGACCCA	0.35
GGCCGGCAUGGACCCAGCCUCCUCGCUGGCGCCGGCUGGGCAACAUUCCGAGGGGACCAUCCCCUCGGUAAUGGCGAAUGGGACCCA	0.172
GGCCGGCAUGGACCCAGCCUCCUCGCUGGCGCCGGCUGGGCAACAUUCCGAGGGGACCGUCCCCUCGGUAAUGGCGAAUGGGACCUA	0.178
GGCCGGCAUGGACCCAGCCUCCUCGCUGGCGCCGGCUGGGCAACAUUCCGAGGGGACCGUCCCCUCGGUCAUGGCGAAUGGGACCCA	0.332

Variant	self-cleavage
GGCCGGCAUGGACCCAGCCUCCUCGCUGGCGCCGGCUGGGCAACAUUCCGGGGGGACCGUCCCCUCGGUAAUGGCGAAUGGGACCCA	0.196
GGCCGGCAUGGACCCAGCCUCCUCGCUGGCGCCGGCUGGGCAACAUUCCGAGGGGACCGUCCCCGCGGUAAUGGCGAAUGGGACCCA	0
GGCCGGCAUGGACCCAGCCUCCUCGCUGGCGCCGGCUGGGCAACAUUCCGAGGGGACCGUCGCCUCGGUAAUGGCGAAUGGGACCCA	0.133
GGCCGGCAUGGACCCAGCCUCCUCGCUGGCGCCGGCUGGGCAACAUUCCGAGGGGACCGUCACCUCGGUAAUGGCGAAUGGGACCCA	0.458
GGCCGGCAUGGACCCAGCCUCCUCGCUGGCGCCGGCUGGGCAACAUUCCGAGGGGAUCGUCCCCUCGGUAAUGGCGAAUGGGACCCA	0.246
GGCCGGCAUGGACCCAGCCUCCUCGCUGGCGCCGGCUGGGCAACAUUCCGAGGGGAACGUCCCCUCGGUAAUGGCGAAUGGGACCCA	0.256
GGCCGGCAUGGACCCAGCCUCCUCGCUGGCGCCGGCUGGGCAACAUUCAGAGGGGACCGUCCCCUCGGUAAUGGCGAAUGGGACCCA	0.128
GGCCGGCAUGGACCCCGCCUCCUCGCUGGCGCCGGCUGGGCAACAUUCCGAGGGGACCGUCCCCUCGGUAAUGGCGAAUGGGACCCA	0.499
GGCCGGCAUGGACCCAGCCUCCUCGCUGGCGCCAGCUGGGCAACAUUCCGAGGGGACCGUCCCCUCGGUAAUGGCGAAUGGGACCCA	0.0378
GGCCGGCAUGGACCCAGCCUCCUCGCUGGCGCCGGCUGGGCAACAUUCCGAGGGGACCGUCCCCUCGGUAAUGGCGAAUGGGGCCCA	0.302
GGCCGGCAUGGCCCCAGCCUCCUCGCUGGCGCCGGCUGGGCCACAUUCCGAGGGGACCGUCCCCUCGGUAAUGGCGAAUGGGACCCA	0.0489
GGCCGGCAUGGACCCAGCCUCCUCGCUGGCGCCGGCUGGGCAACAUUCCGAGGGAACCGUCCCCUCGGUAAUGGCGAAUGGGACCCA	0.415
GGCCGGCAUGGACCCAGCCUCCUCGCUGGCGCCGGCUGGGCAACAUUCCGAGGGUACCGUCCCCUCGGUAAUGGCGAAUGGGACCCA	0.185
GGCCGGCAUGGACCCAGCCUCCUCGCUGGCGCCGGCUGGGCAAAAUUCCGAGGGGACCGUCCCCUCGGUAAUGGCGAAUGGGACCCA	0
GGCCGGCAUGGACCCAGCCUCCUCGCUGGCGCCGGCUGGGCAAUAUUCCGAGGGGACCGUCCCCUCGGUAAUGGCGAAUGGGACCCA	0
GGCCGGCAUGGACCCAGCCUCCUCGCUGGCGCCGGCUGGGCAACAUUCCGAGGGGACCGUCCCCUCGGUAAUGGCGAAUGAGACCCA	0.0554
GGCCGGCAUGGACCCAGCCUCCUCGCUGGCGCCGGCUGGGCAACAUUCCGAGGGGACCGUCCACUCGGUAAUGGCGAAUGGGACCCA	0.519
GGCCGGCAUGGACCCAGCCUCCUCGCUGGCGCCGGCUGGGCAACAUUCCGAGGGGACCGUCCUCUCGGUAAUGGCGAAUGGGACCCA	0.453
GGCCGGCAUGGACCCAGCCUCCUCGCUGGCGCCGGCUGGGCAACAUUGCGAGGGGACCGUCCCCUCGGUAAUGGCGAAUGGGACCCA	0.415
GGCCGGCAUGGACCUAGCCUCCUCGCUGGCGCCGGCUGGGCAACAUUCCGAGGGGACCGUCCCCUCGGUAAUGGCGAAUGGGACCCA	0.138
